Measured values published in PMC12315501 (2025).

Biological target: recombinant NbRab‐G3c protein (Nicotiana benthamiana)
Experiment: ITC

B1: recombinant Pi17063 protein (natural protein)
chain: ASADSNERLVRAVYSTVRSRDLATDDGPKHTKRFLRGESSKIVNLKQEEGVFEERKGVSQKLTKALQAIKARYLKWEQKVLVPGFKKMAEKGVTYSELRDTFRVRMMNSGRWGTPSGFKRYARLYSEWLHRTGRSHLAK
B1 was tested. Which Kd did it give?
Its Kd is 1480 nM.
